How the values were obtained:
[1] = target: human KRAS^G12V (residues 1-169) (human) (UniProt P01116); test: stopped-flow fluorescence kinetics
[2] = target: human SOS1 (residues 564-1049), SOS1^cat (Homo sapiens, UniProt Q07889, labelled with Alexa488 for flow cytometry (SOS1-488)); test: BLI

Molecule: human SOS1 (residues 564-1049), SOS1^cat (from UniProt Q07889 564-1049) (domain or fragment)
- fold decrease of KD1 with Nb22 against SOS1 alone [1]: 3.1 fold
- fold increase of k1 (kon) with excess Nb22 against SOS1 alone [1]: 4 fold
- kon [1]: 4.2e+06 M⁻¹ s⁻¹
- ratio of k-1 (koff) with Nb14 to SOS1 alone [1]: 0.3 fold

B1: Nanobody Nb77 (VHH)
VHH: QVQLVESGGGLVQPGGSLRLSCAASRSISSINIMGWYRQAPGKERESVASHTRDGSTDYADSVKGRFTISRDNAKNTVYLQMNSLKPEDTAVYYCTTLTGFPRIRSWGQGTQVTVSS
- Kd [2]: 70 ± 10 nM

Source: article doi:10.1101/2022.12.06.519258 (bioRxiv, 2022)
